Assay results: patent US20080248995, “Modulation of PPARgamma2 gene promoter by FOXO1” (Technion Research and Development Foundation Ltd., published 2008)

B1: hPPARγ2 promoter bp 270-310 (dsDNA)
DNA 1: GACACTGAACATGTGGGTCACCGGCGAGACAGTGTGGCAA
DNA 2: TTGCCACACTGTCTCGCCGGTGACCCACATGTTCAGTGTC

Key:
[1] = molecular target: FOXO1 (FLAG-tagged, transfected) (Homo sapiens) (UniProt Q12778); test: cell_activity; conditions: 3xIRS-LUC in primary rat adipocytes, data not shown
[2] = molecular target: T1, FOXO1 (FLAG-tagged, full-length) (Homo sapiens, UniProt Q12778 SEQ:126-780); test: EMSA; competed by 100x and 200x unlabeled probe; supershift with anti-FLAG and anti-FOXO1 H-128, not N-18; 50 mM KCl, 1 mM EDTA, pH 7.9, poly(dI-dC), 25 C; conditions: tags: FLAG; TnT reticulocyte lysate; label: 32P
T1 chain: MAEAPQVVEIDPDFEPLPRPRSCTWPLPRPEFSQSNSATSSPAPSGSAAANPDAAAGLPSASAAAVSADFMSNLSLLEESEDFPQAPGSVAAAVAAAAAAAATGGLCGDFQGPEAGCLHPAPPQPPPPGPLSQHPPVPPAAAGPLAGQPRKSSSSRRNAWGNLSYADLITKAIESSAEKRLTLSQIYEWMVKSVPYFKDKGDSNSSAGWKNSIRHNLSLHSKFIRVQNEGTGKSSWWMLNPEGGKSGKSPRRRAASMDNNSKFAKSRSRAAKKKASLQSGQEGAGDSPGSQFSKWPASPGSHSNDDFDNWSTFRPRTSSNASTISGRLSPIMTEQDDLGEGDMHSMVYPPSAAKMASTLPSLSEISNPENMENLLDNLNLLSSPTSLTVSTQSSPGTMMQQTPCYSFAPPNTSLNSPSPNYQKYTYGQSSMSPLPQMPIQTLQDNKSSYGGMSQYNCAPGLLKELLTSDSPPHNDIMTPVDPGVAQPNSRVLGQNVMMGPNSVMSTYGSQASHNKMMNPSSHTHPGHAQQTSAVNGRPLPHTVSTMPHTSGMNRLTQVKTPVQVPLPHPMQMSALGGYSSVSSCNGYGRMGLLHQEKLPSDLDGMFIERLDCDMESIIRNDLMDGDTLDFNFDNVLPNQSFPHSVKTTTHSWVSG
Description: (vi) In vitro Translation and Electrophoretic Mobility Shift Assay (EMSA)—In vitro translation of FOXO1 proteins and EMSA studies were performed as described (Armoni et al., 2003). The TnT SP6/T7-coupled reticulocyte lysate system (Promega, Madison Wis.) was used to generate in vitro translated FLAG-tagged FOXO1 proteins from the corresponding cDNA, and the resulting protein lysate was used in EMSA. Protein expression was confirmed by SDS-PAGE, followed by phosphorimaging analysis of proteins translated in the presence of ³⁵S-methionine (cell labeling grade; Amersham, Buckinghamshire, UK). In vitro translation reactions generated sufficient protein to use in EMSA studies. Sense and antisense PPARγ promoter-derived oligonucleotides were synthesized that correspond to bp 270-310 of hG2-587 (sense: […] TGGGT […]) (SEQ ID NO: 4); these were annealed and end-labeled with γ-³²P-ATP (6000 Ci/mmol; Amersham, Buckinghamshire, UK) in the presence of polynucleotide kinase. Protein-DNA binding reactions were assembled in a total volume of 20 μl, which included 4 μl of the in vitro translated FOXO1 lysate, radiolabeled probe (˜75,000 cpm), and 4 μg of poly(dI-dC) in a buffer containing 10 mM HEPES (pH 7.9), 1 mM dithiothreitol, 1 mM EDTA, 4% Ficoll, and 50 mM KCl. […] Gels were fixed in 10% acetic acid for 15 min, dried, and analyzed by phosphorimaging.

Molecule | activity (fold activation) [1] | binding result [2]
3xIRS (three insulin response element repeats) in pGL2-LUC | < 8.5 | 
B1 |  | binds
